Assay results reported in the Human Domainome abundance scans (Beltran et al. 2025).
± gives the uncertainty stated by the source.

B1: Steroid hormone receptor ERR2, residues 100 to 176; numbered along this chain, O95718 (parent)
chain: KRLCLVCGDIASGYHYGVASCEACKAFFKRTIQGNIEYSCPATNECEITKRRRKSCQACRFMKCLKVGMLKEGVRLD

Variants of: B1
Experiment: abundance fitness (aPCA) (normalised: wild type 0, dead -1); higher = more abundant; growth selection in yeast, the domain comes from the species named
Conditions: Homo sapiens

| Variant | abundance fitness |
| --- | --- |
| KRLCLVCGDIASGYHYGVACCEACKAFFKRTIQGNIEYSCPATNECEITKRRRKSCQACRFMKCLKVGMLKEGVRLD | 0.414 ± 0.047 |
| KRLCLVCGDIASGYHYGVADCEACKAFFKRTIQGNIEYSCPATNECEITKRRRKSCQACRFMKCLKVGMLKEGVRLD | -0.218 ± 0.094 |
| KRLCLVCGDIASGYHYGVAECEACKAFFKRTIQGNIEYSCPATNECEITKRRRKSCQACRFMKCLKVGMLKEGVRLD | -0.232 ± 0.051 |
| KRLCLVCGDIASGYHYGVAFCEACKAFFKRTIQGNIEYSCPATNECEITKRRRKSCQACRFMKCLKVGMLKEGVRLD | -0.485 ± 0.12 |
| KRLCLVCGDIASGYHYGVAGCEACKAFFKRTIQGNIEYSCPATNECEITKRRRKSCQACRFMKCLKVGMLKEGVRLD | 0.282 ± 0.032 |
| KRLCLVCGDIASGYHYGVAICEACKAFFKRTIQGNIEYSCPATNECEITKRRRKSCQACRFMKCLKVGMLKEGVRLD | 0.26 ± 0.075 |
| KRLCLVCGDIASGYHYGVAKCEACKAFFKRTIQGNIEYSCPATNECEITKRRRKSCQACRFMKCLKVGMLKEGVRLD | -0.218 ± 0.059 |
| KRLCLVCGDIASGYHYGVALCEACKAFFKRTIQGNIEYSCPATNECEITKRRRKSCQACRFMKCLKVGMLKEGVRLD | -0.185 ± 0.048 |
| KRLCLVCGDIASGYHYGVAMCEACKAFFKRTIQGNIEYSCPATNECEITKRRRKSCQACRFMKCLKVGMLKEGVRLD | -0.322 ± 0.066 |
| KRLCLVCGDIASGYHYGVANCEACKAFFKRTIQGNIEYSCPATNECEITKRRRKSCQACRFMKCLKVGMLKEGVRLD | 0.131 ± 0.077 |
| KRLCLVCGDIASGYHYGVAPCEACKAFFKRTIQGNIEYSCPATNECEITKRRRKSCQACRFMKCLKVGMLKEGVRLD | -0.321 ± 0.079 |
| KRLCLVCGDIASGYHYGVAQCEACKAFFKRTIQGNIEYSCPATNECEITKRRRKSCQACRFMKCLKVGMLKEGVRLD | -0.007 ± 0.055 |
| KRLCLVCGDIASGYHYGVARCEACKAFFKRTIQGNIEYSCPATNECEITKRRRKSCQACRFMKCLKVGMLKEGVRLD | -0.381 ± 0.048 |
| KRLCLVCGDIASGYHYGVATCEACKAFFKRTIQGNIEYSCPATNECEITKRRRKSCQACRFMKCLKVGMLKEGVRLD | 0.346 ± 0.047 |
| KRLCLVCGDIASGYHYGVAVCEACKAFFKRTIQGNIEYSCPATNECEITKRRRKSCQACRFMKCLKVGMLKEGVRLD | 0.34 ± 0.039 |
| KRLCLVCGDIASGYHYGVAWCEACKAFFKRTIQGNIEYSCPATNECEITKRRRKSCQACRFMKCLKVGMLKEGVRLD | -0.052 ± 0.047 |
| KRLCLVCGDIASGYHYGVAYCEACKAFFKRTIQGNIEYSCPATNECEITKRRRKSCQACRFMKCLKVGMLKEGVRLD | -0.109 ± 0.12 |
| KRLCLVCGDIASGYHYGVASDEACKAFFKRTIQGNIEYSCPATNECEITKRRRKSCQACRFMKCLKVGMLKEGVRLD | -0.518 ± 0.3 |

| Variant | abundance fitness |
| --- | --- |
| KRLCLVCGDIASGYHYGVASEEACKAFFKRTIQGNIEYSCPATNECEITKRRRKSCQACRFMKCLKVGMLKEGVRLD | -0.814 ± 0.11 |
| KRLCLVCGDIASGYHYGVASFEACKAFFKRTIQGNIEYSCPATNECEITKRRRKSCQACRFMKCLKVGMLKEGVRLD | -1.04 ± 0.37 |
| KRLCLVCGDIASGYHYGVASGEACKAFFKRTIQGNIEYSCPATNECEITKRRRKSCQACRFMKCLKVGMLKEGVRLD | -0.866 ± 0.078 |
| KRLCLVCGDIASGYHYGVASIEACKAFFKRTIQGNIEYSCPATNECEITKRRRKSCQACRFMKCLKVGMLKEGVRLD | -0.693 ± 0.14 |
| KRLCLVCGDIASGYHYGVASKEACKAFFKRTIQGNIEYSCPATNECEITKRRRKSCQACRFMKCLKVGMLKEGVRLD | -0.679 ± 0.11 |
| KRLCLVCGDIASGYHYGVASLEACKAFFKRTIQGNIEYSCPATNECEITKRRRKSCQACRFMKCLKVGMLKEGVRLD | -0.625 ± 0.076 |
| KRLCLVCGDIASGYHYGVASMEACKAFFKRTIQGNIEYSCPATNECEITKRRRKSCQACRFMKCLKVGMLKEGVRLD | -0.961 ± 0.15 |
| KRLCLVCGDIASGYHYGVASNEACKAFFKRTIQGNIEYSCPATNECEITKRRRKSCQACRFMKCLKVGMLKEGVRLD | -1 ± 0.38 |
| KRLCLVCGDIASGYHYGVASQEACKAFFKRTIQGNIEYSCPATNECEITKRRRKSCQACRFMKCLKVGMLKEGVRLD | -1.01 ± 0.19 |
| KRLCLVCGDIASGYHYGVASREACKAFFKRTIQGNIEYSCPATNECEITKRRRKSCQACRFMKCLKVGMLKEGVRLD | -0.761 ± 0.075 |
| KRLCLVCGDIASGYHYGVASSEACKAFFKRTIQGNIEYSCPATNECEITKRRRKSCQACRFMKCLKVGMLKEGVRLD | -0.532 ± 0.077 |
| KRLCLVCGDIASGYHYGVASTEACKAFFKRTIQGNIEYSCPATNECEITKRRRKSCQACRFMKCLKVGMLKEGVRLD | -0.871 ± 0.14 |
| KRLCLVCGDIASGYHYGVASVEACKAFFKRTIQGNIEYSCPATNECEITKRRRKSCQACRFMKCLKVGMLKEGVRLD | -0.818 ± 0.09 |
| KRLCLVCGDIASGYHYGVASWEACKAFFKRTIQGNIEYSCPATNECEITKRRRKSCQACRFMKCLKVGMLKEGVRLD | -0.94 ± 0.15 |
| KRLCLVCGDIASGYHYGVASYEACKAFFKRTIQGNIEYSCPATNECEITKRRRKSCQACRFMKCLKVGMLKEGVRLD | -0.89 ± 0.41 |
| KRLCLVCGDIASGYHYGVASCAACKAFFKRTIQGNIEYSCPATNECEITKRRRKSCQACRFMKCLKVGMLKEGVRLD | 0.012 ± 0.046 |
| KRLCLVCGDIASGYHYGVASCFACKAFFKRTIQGNIEYSCPATNECEITKRRRKSCQACRFMKCLKVGMLKEGVRLD | -0.449 ± 0.12 |
| KRLCLVCGDIASGYHYGVASCHACKAFFKRTIQGNIEYSCPATNECEITKRRRKSCQACRFMKCLKVGMLKEGVRLD | -0.091 ± 0.074 |
